Data reported in patent publication US8933202B2, “AXL antibodies” (U3 Pharma GmbH, priority 2007, dated 2015).

How the values were obtained:
C-8161 melanoma cells = test: Soft agar colony formation assay, combination with cisplatin; assay type: cell-based, human
Method: Soft agar assays were conducted in order to investigate the ability of anti-Axl antibodies of the invention to inhibit anchorage-independent cell growth either alone or in combination with chemotherapeutic agents. The soft agar colony formation assay is a standard in vitro assay to test for transformed cells, as only transformed cells are able to grow in soft agar.
In brief, 750 C-8161 melanoma cells either remained untreated or were pre-incubated with the antagonistic rat anti-Axl antibody 11B7 at 15 μg/ml in IMDM medium (Gibco) for 30 min at 37° C. Subsequently, cells were combined with Difco noble agar solution resulting in 50 μl of top agar cell suspension at concentrations of Agar, FCS, and 11B7 of 0.35%, 0.2%, and 7.5 μg/ml, respectively. This cell suspension was plated on top of 50 μl of a 0.7% agarose bottom layer containing 20% FCS, and was finally covered with another 50 μl of a feeding layer solution that contains 0.2% FCS as well as cisplatin in according concentrations. In the whole of 150 μl per sample, the final concentrations of 11B7 and cisplatin were 2.5 μg/ml and 1.5 μM, 1.0 μM, 0.75 μM, 0.5 μM, or 0.25 μM, respectively. Colonies were allowed to form for 5 days and were then stained with 50 μl MTT (Sigma, 1 mg/ml in PBS) for 3 hours at 37° C. Using a Scanalyzer HTS camera system in conjunction with the HTS Bonit colony formation software (Lemnatec, Wuerselen), the effect of the antagonistic rat anti-Axl antibody 11B7 in the absence or presence of cisplatin were analyzed in triplicates.

Akt-Kinase = Akt-Kinase (Ser473) phosphorylation ELISA; assay type: cell-based; details: 400 ng/ml Gas6
Method: Furthermore, ELISA experiments were performed in order to investigate whether the rat anti-AXL antibodies of the invention are able to block ligand Gas6-mediated activation of Akt-Kinase. Gas6-mediated Akt-Kinase activation was detected by increased protein (Ser473) phosphorylation. In brief, on day 1. 2×10^4 cells per well were seeded in flat-bottom 96 well plates. The next day, normal growth medium was replaced by serum-reduced (DMEM, 0.5% FCS for NIH3T3-AXL cl.7 fibroblasts) or serum-free (for cancer cell lines) medium to starve cells for 36 h. […] Medium was flicked out and cells were fixed with 4% formaldehyde in PBS (pH 7.5) for 30 min at room temperature. Formaldehyde solution was removed and cells were washed twice with wash buffer (PBS, 0.1% Tween 20). […] Tetramethylbenzidine (TMB, Calbiochem) was added and monitored at 620 nm.
In order to investigate whether the rat anti-AXL antibodies of the invention and the corresponding chimeric anti-AXL antibodies of the invention were able to block ligand Gas6-mediated activation of the Akt-Kinase in NIH3T3-AXL cl.7 fibroblasts to similar extent, ELISA experiments were performed. Antibody-mediated Akt-Kinase inhibition was detected by decreased protein (Ser473) phosphorylation. […] Tetramethylbenzidine (TMB, Calbiochem) was added and monitored at 620 nm.

[1] = tested on: NIH3T3-AXL cl.7 fibroblasts; test: AlamarBlue Gas6-induced proliferation assay; assay type: cell-based; details: 20 μg/ml antibody, with or without 400 ng/ml Gas6, 96 h
Method: In vitro experiments were conducted in order to determine the ability of the rat anti-AXL antibodies of the invention to inhibit Gas6-induced cell proliferation. For this purpose, 2,500 NIH3T3-AXL cl.7 fibroblasts per well were seeded in FCS-containing medium on 96 well plates over night. […] Cells were treated with or without 400 ng/ml mouse Gas6 (R&D Systems) by adding ligand directly to the antibody solution, and were then left to grow for 96 h. AlamarBlue™ (BIOSOURCE #DAL1100) was added and incubated at 37° C. in the dark. Absorbance was measured at 590 nm every 30 min. The data were taken 4 h after addition of AlamarBlue™.

B1: 11B7: antagonistic rat anti-AXL monoclonal antibody, rat IgG1 (antibody, V domains shown)
VL: DIQMTQAPSSLPASLGDRVTITCRASQDIGNYLRWFQQKPGKSPRLMISGATNLAAGVPSRFSGSRSGSDYSLTISSLESEDMADYYCLQSKESPWTFGGGTKLELK
VH: EVQLQESGPGLVKPSQSLSLTCSVTGYSITSNYWGWIRKFPGDKMEWMGYITYSGSTSYNPSLKSRISITRDTSKNQFFLQLNSVTSEDTATYYCAITTFYYWGQGVMVTVSS
Question: What does the source list for B1?
Answer: soft agar colony growth, combination with cisplatin (C-8161 melanoma cells; 2.5 μg/ml 11B7 + 0.25 to 1.5 μM cisplatin, 5 days): significantly potentiated inhibitory effect of cisplatin; inhibitory effect on soft agar colony growth, antibody alone (C-8161 melanoma cells; 2.5 μg/ml 11B7, 5 days, overall area of colonies): ~30%; ligand-mediated Akt-Kinase activation, rat versus chimeric antibody (Akt-Kinase; 50 ng/ml to 1 μg/ml (11B7, ch11B7) or to 10 μg/ml (11D5, ch11D5), NIH3T3-AXL cl.7): able to inhibit ligand-mediated Akt-Kinase activation to similar extent; ligand-mediated Akt-Kinase activation (phosphorylation) (Akt-Kinase; 10 μg/ml antibody, NIH3T3-AXL cl.7 fibroblasts and CaLa-1 lung cancer cells): able to block or reduce ligand-mediated Akt-Kinase activation; cell proliferation [1]: blocked Gas6-induced proliferation
